For assay [1], the target named is T1, recombinant, soluble human ASGR-1 (human, UniProt P07306 62-291).
T1 construct: biotinylated in the binning assay; also called soluble huASGR-1; Soluble ASGR-1 (Amgen)
T1 sequence: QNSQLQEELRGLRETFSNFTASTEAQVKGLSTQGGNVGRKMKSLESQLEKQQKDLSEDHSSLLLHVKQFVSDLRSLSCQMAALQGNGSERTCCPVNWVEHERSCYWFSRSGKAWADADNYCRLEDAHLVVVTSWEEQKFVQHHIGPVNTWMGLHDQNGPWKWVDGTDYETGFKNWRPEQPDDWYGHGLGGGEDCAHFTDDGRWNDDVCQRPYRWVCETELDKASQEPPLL
Put plainly: Octet BLI dissociation, pH 7.4 minus calcium. The protocol: (§1) The relative dissociation of ASGR-1 from antibodies was measured using a label-free assay on an OctetHTX instrument (Fortebio). Antibody samples were captured on anti-HuFc kinetic biosensors (ForteBio cat #18-5064) at 5 ug/mL in assay buffer (10 mM Tris, 0.1% Triton, 150 mM NaCl, 1 mg/mL BSA, 1 mM CaCl2, pH7.4) for three minutes. A one minute baseline stabilization step was performed in assay buffer. Soluble ASGR-1 (Amgen) at 6 ug/ml in assay buffer was added and association to the antibodies was monitored for two minutes. Subsequent dissociation of ASGR-1 from the antibodies was performed by incubating the ASGR-1-mAb complexes for 10 minutes under each of the following conditions:
(§2) The binding signal at the end of the 2 minute association phase for each dissociation experiment was set to 100% and used to represent the maximal level of ASGR-1 binding. After 1 minute of dissociation, the percentage of ASGR-1 remaining bound was calculated. The lower the percent remaining at a given time point indicates increased levels of dissociation in response to the test conditions (ie. different pH and/or calcium concentrations). The change in the percentage of ASGR-1 remaining bound in response to each test condition relative to the percent remaining in the control conditions (ie. pH 7.4+calcium) was determined. Cut-offs for an antibody to be categorized as being sensitive to a particular condition were set to >10% (ie. if >10% of the ASGR-1 dissociates from the antibody under a particular test condition compared to control condition, it was deemed sensitive to that condition). The analysis was done using the 1 minute dissociation time point (except for mAb 149A1 which was binned based on the 4 minute dissociation time point). Using this analysis, the ASGR-1-binding, receptor-ligand blocking antibodies were separated into groups according to their dissociation profiles in response to pH and calcium (Table 7.3). Antibodies belonging to each category were observed.

Assay [2] has as its target T1, recombinant, soluble human ASGR-1. The assay is described as follows: Octet BLI dissociation, pH 5.6 plus calcium. The protocol:
as §1, §2
Background: Biolayer interferometry detects binding as a change in optical thickness at a sensor tip.

For assay [3] the target is unchanged. Put plainly: Octet BLI dissociation, pH 5.6 minus calcium. The protocol: as §1, §2

Changes are numbered by the printed parent chain.

B1: 64E2 (antibody, V domains shown)
VH: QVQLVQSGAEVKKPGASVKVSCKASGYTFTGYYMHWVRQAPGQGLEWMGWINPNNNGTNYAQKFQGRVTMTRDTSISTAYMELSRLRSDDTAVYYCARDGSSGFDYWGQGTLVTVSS
VL: DIQMTQSPSSVSASVGDRVTITCRASQGISRWLAWYQQKPGKAPKLLIYAASSLQSGVPSRFSGSGSGTDFTLTISSLQPEDFATYYCQQANSFPFTFGPGTKVDIK
notes: hybridoma mAb
In the case of B1, the results for the “% Change Compared to pH 7.4 + Calcium” value in assay [1], in assay [2] and in assay [3] were 48%, 29% and 49%, respectively.

B2: 53F7 (antibody, V domains shown)
VH: QVQLVQSGAEVKKPGASVKVSCKASGYTFTGYHMHWVRQAPGQGLEWMGWINPNNNGTNYAQKFQGRVTMTRDTSISTAYMELNRLTSDDTAVYYCARDGTSSFDYWGQGTLVTVSS
VL: B1 VL with T5S, K45N, T85I
notes: hybridoma mAb
Regarding B2, the entries for the “% Change Compared to pH 7.4 + Calcium” value in assay [1], in assay [2] and in assay [3] were 9%, 3% and 13%, respectively.

B3: 53F2 (antibody, V domains shown)
VH: B2 VH with H33Y, M34L, N55R, K63N, N84S, T87K
VL: B1 VL with R31K, K45N, I48L, R61K, I106V
notes: hybridoma mAb
With B3, the entries for the “% Change Compared to pH 7.4 + Calcium” value in assay [1], in assay [2] and in assay [3] were 15%, 1% and 13%, respectively.

B4: 49F10 (antibody, V domains shown)
VH: B2 VH with G57A, K63N, M70L, N84S, T87R, Y106F
VL: B1 VL with L46V, S53T
notes: hybridoma mAb
Consider B4, for which the “% Change Compared to pH 7.4 + Calcium” value is 4% in assay [1], -2% in assay [2] and 8% in assay [3].

B5: 10G6 (antibody, V domains shown)
VH: B2 VH with G31A, N84S, T87R, A97G, G100V
VL: B1 VL with R31K, L46I, S52Y, S60A, S76R
notes: hybridoma mAb
For B5, the “% Change Compared to pH 7.4 + Calcium” value worked out at 7% in assay [1], 4% in assay [2] and 15% in assay [3].

B6: 55B1 (antibody, V domains shown)
VH: B2 VH with H33Y, M34F, N52H, G57A, N84S, T87R, R98K, T101R
VL: B1 VL with G28V, K45N, I106L
notes: hybridoma mAb
Regarding B6, the “% Change Compared to pH 7.4 + Calcium” value in assay [1] was 5%; in assay [2], -2%; in assay [3], 4%.

B7: 50D4 (antibody, V domains shown)
VH: B2 VH with G57A, K63S, M70L, N84S, T87R, Y106F
VL: B1 VL with V19L, L46V, S53T, K107R
notes: hybridoma mAb
Consider B7, for which the “% Change Compared to pH 7.4 + Calcium” value in assay [1] is 6%; in assay [2] it was 0%; in assay [3], 9%.

B8: 4H6 (antibody, V domains shown)
VH: B2 VH with G31D, H33Y, M34L, N52H, N55S, N56G, E82G, N84S, R85S, T87R
VL: B1 VL with A50G, T85I
notes: hybridoma mAb
Consider B8, for which the entries for the “% Change Compared to pH 7.4 + Calcium” value in assay [1], in assay [2] and in assay [3] were 5%, -1% and 2%, respectively.

B9: 51E9 (antibody, V domains shown)
VH: B2 VH with G26R, M34I, N55T, N59Q, N84S, T87R
VL: B1 VL with R31S, A50V, S76R, N92K
notes: hybridoma mAb
Take B9: the “% Change Compared to pH 7.4 + Calcium” value was 3% in assay [1], -5% in assay [2] and 2% in assay [3].

B10: 52G11 (antibody, V domains shown)
VH: B2 VH with H33Y, M34L, N55R, Y80F, N84S, T87R
VL: B1 VL with R31K, I48L, G64A, I106V
notes: hybridoma mAb
With B10, the “% Change Compared to pH 7.4 + Calcium” value came out at 15% in assay [1], 1% in assay [2] and 13% in assay [3].

B11: 22G5 (antibody, V domains shown)
VH: EVQLLESGGGLVQPGGSLRLSCAASGFTFSSYAMNWVRQAPGMGLEWVSVISRSGGYTYYADSVKGRFTISRDNSKNTLYLQMNSLRAEDTAVYYCASRLAVAGSEAFDIWGQGTLVTVSS
VL: DIQMTQSPSSLSASVGDRVTITCRASQNISSYLNWYQQKQGKAPKLLIYAASSLQNGVPSRFSGRGSGTDFTLTISSLQPEDFATYYCQQSYRTPLFTFGPGTKVDFK
notes: hybridoma mAb
For B11, the entries for the “% Change Compared to pH 7.4 + Calcium” value in assay [1] and in assay [2] were 40% and 35%, respectively.

The record behind these values is patent US20190248902A1 (published 2019).
